This note sets out measurements from paper PMC4623691.

Experiment [1] deals with chloroplastic glutamine synthetase GS2 of wheat (Triticum aestivum (endogenous in wheat seedlings)). Kind of experiment: native gel or EMSA; modified blue native electrophoresis (BNE), 4-13% polyacrylamide gradient gel, 4 °C; 1 h with cathode buffer with 0.02% Coomassie G250, then buffer without dye; ~100 ug soluble proteins from wheat seedling chloroplasts, leaves and roots; GS bands detected by in-gel transferase activity; mass calibrated against high-molecular-weight markers. Background: Mobility shift assays separate free from complexed probe on a gel.

The target in experiment [2] is cytosolic glutamine synthetase GS1 holoenzyme of wheat (39 kDa subunit) (Triticum aestivum (endogenous in wheat seedlings)) (UniProt Q45NB7). Described as above.
Experiment [3] deals with maize glutamine synthetase (maize (endogenous in maize leaf and roots)). Kind of experiment: native gel or EMSA; maize leaf and root extracts beside wheat (Supplementary Fig. S5); gel system not given.

In turn, “chloroplastic glutamine synthetase GS2 of wheat (natural protein)” displayed a stoichiometry N in experiment [1] of 6.

For “cytosolic glutamine synthetase GS1 holoenzyme of wheat (39 kDa subunit) (from UniProt Q45NB7 1-356) (natural protein)”, in experiment [2], the stoichiometry N came to 12. In experiment [3], “maize glutamine synthetase (natural protein)” showed a stoichiometry N of 10.

What is called stoichiometry N is the number of molecules, sites or subunits per partner or assembly.
